Results reported in publication PMC5922973, “Topoisomerase VI senses and exploits both DNA crossings and bends to facilitate strand passage” (eLife, 2018).

T1: topo VI KGRR-AAA (Methanosarcina mazei, UniProt Q8PUB7;Q8PUB8 1-369;1-621, K186A;R188A;R189A)
T1 sequence 1: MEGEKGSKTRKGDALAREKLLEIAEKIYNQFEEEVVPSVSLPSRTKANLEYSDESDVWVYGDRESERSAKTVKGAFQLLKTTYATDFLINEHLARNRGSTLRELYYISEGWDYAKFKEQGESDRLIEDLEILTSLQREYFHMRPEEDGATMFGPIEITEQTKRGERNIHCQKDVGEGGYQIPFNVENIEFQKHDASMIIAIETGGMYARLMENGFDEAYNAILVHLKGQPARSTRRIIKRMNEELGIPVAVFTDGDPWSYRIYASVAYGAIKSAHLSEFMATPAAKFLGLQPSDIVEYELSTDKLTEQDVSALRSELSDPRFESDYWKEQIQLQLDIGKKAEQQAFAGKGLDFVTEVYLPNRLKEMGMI
T1 sequence 2: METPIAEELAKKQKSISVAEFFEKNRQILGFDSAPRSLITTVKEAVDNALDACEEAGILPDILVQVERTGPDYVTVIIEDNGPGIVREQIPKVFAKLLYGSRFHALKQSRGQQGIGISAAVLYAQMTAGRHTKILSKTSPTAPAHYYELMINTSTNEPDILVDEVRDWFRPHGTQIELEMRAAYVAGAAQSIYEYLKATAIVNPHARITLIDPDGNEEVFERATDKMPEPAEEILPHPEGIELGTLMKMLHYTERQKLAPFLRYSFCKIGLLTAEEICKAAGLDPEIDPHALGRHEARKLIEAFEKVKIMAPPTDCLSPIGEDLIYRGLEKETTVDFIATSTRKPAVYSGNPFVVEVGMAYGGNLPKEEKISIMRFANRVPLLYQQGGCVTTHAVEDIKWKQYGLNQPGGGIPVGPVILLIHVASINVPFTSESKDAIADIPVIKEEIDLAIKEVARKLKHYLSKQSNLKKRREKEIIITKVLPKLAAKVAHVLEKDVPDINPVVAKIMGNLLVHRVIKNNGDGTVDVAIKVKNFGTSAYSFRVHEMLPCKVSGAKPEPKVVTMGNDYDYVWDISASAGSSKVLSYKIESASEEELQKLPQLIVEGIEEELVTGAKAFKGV

T2: topo VI H2TH-EEE (Methanosarcina mazei, UniProt Q8PUB7;Q8PUB8 1-369;1-621, R263E;K268E;K308E)
T2 sequence 1: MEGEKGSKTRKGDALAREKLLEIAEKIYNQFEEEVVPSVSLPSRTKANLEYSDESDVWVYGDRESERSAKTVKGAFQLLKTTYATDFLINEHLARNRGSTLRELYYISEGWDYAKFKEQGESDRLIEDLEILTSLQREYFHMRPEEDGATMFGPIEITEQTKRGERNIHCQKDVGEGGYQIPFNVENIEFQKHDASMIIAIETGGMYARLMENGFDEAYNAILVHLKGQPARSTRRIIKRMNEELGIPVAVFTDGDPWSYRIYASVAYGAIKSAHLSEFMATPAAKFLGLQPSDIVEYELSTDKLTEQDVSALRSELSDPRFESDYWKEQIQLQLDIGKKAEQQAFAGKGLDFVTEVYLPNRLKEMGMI
T2 sequence 2: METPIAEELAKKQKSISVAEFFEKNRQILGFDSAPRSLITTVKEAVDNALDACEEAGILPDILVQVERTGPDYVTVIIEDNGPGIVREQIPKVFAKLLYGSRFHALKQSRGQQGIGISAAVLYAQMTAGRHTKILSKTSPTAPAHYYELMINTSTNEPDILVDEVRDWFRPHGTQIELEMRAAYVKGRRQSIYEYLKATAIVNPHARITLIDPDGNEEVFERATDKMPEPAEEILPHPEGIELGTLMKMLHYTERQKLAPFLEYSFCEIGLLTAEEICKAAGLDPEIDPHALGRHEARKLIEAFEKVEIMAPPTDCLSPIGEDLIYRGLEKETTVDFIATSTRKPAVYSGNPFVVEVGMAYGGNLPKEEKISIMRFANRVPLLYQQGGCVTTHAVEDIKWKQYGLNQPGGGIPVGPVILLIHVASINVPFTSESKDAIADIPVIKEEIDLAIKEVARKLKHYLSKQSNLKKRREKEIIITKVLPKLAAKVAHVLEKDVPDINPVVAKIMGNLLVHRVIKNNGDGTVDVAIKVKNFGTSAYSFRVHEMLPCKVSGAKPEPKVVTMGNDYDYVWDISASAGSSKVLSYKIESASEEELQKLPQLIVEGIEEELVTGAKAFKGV

T3: topo VI KGRR-EEE (Methanosarcina mazei, UniProt Q8PUB7;Q8PUB8 1-369;1-621, K186E;R188E;R189E)
T3 sequence 1: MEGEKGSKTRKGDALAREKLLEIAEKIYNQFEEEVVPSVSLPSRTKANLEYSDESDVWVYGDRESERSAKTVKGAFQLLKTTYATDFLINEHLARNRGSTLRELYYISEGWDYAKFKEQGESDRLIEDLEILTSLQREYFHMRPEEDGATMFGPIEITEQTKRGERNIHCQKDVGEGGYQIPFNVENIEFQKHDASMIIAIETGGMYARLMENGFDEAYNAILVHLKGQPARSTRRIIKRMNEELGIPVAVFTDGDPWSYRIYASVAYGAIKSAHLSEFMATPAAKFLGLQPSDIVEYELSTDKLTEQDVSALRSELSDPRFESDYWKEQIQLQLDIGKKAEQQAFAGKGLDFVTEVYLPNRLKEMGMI
T3 sequence 2: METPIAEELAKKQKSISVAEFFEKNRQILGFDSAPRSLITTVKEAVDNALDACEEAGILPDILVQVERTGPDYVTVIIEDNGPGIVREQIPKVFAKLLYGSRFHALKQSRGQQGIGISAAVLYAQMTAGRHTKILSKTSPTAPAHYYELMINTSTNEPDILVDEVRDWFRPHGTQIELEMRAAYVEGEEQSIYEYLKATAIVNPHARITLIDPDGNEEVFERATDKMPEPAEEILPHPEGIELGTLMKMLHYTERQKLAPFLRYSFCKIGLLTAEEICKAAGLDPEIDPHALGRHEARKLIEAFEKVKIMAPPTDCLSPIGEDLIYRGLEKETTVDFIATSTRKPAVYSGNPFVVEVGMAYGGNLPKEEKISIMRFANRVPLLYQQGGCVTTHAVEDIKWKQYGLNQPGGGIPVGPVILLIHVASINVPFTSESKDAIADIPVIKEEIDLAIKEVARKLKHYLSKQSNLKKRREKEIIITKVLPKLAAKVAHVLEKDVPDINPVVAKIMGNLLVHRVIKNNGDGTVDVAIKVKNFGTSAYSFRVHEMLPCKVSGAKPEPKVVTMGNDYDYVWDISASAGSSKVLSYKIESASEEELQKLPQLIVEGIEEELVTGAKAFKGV


Columns and labels:
[1] = target: T1, topo VI KGRR-AAA; experiment: fluorescence anisotropy; FA: 20 nM probe, 50 mM K-glutamate, 20 mM HEPES-KOH pH 7.5, 10 mM MgCl2, 5% glycerol, 1 mM TCEP, 0.1 mg/mL BSA; incubated on ice, read at ambient temperature; competition with 100 nM enzyme; conditions: protein: recombinant; tags: N-terminal His6-TEV on Top6B, removed; chain copies: 2;2; label: 5'-FAM strand 1; blunt
[2] = target: T2, topo VI H2TH-EEE; experiment: fluorescence anisotropy; Fluorescence anisotropy, 20 nM FAM-labelled DNA, topo VI 0 and 3.9-4000 nM, no nucleotide; buffer, salt, pH and temperature not given in supplied text; conditions: protein: recombinant, tags: N-terminal His6-TEV on Top6B, removed, chain copies: 2;2
[3] = target: T3, topo VI KGRR-EEE; experiment: as above; conditions: protein: recombinant; tags: N-terminal His6-TEV on Top6B, removed; chain copies: 2;2; label: 5'-FAM strand 1; blunt
[4] = target: T2, topo VI H2TH-EEE; experiment: fluorescence anisotropy; Hill h 1.3; FA: 20 nM probe, 50 mM K-glutamate, 20 mM HEPES-KOH pH 7.5, 10 mM MgCl2, 5% glycerol, 1 mM TCEP, 0.1 mg/mL BSA; incubated on ice, read at ambient temperature; competition with 100 nM enzyme; conditions: protein: recombinant; tags: N-terminal His6-TEV on Top6B, removed; chain copies: 2;2; label: 5'-FAM strand 1; blunt

Row | Binder | apparent K (half saturation) ([2]; label: 5'-FAM strand 1, blunt) [nM] | Kd [3] [nM] | also measured
1 | 60 bp duplex (dsDNA) DNA 1: CGCTTCAATAATATTGAAAAAGGAAGAGTATGAGTATTCAACATTTCCGTGTCGCCCTTC DNA 2: GAAGGGCGACACGGAAATGTTGAATACTCATACTCTTCCTTTTTCAATATTATTGAAGCG | 109 ± 3 | 119 ± 3 | Kd [1]: 99 ± 2 nM
2 | 30 bp duplex (dsDNA) DNA 1: CAAAAAGGAAGAGTATGAGTATTCAACATC DNA 2: GATGTTGAATACTCATACTCTTCCTTTTTG |  | 82 ± 7 | Kd [4]: 94 ± 5 nM
3 | 40 bp duplex (dsDNA) DNA 1: CTATTGAAAAAGGAAGAGTATGAGTATTCAACATTTCCGC DNA 2: GCGGAAATGTTGAATACTCATACTCTTCCTTTTTCAATAG |  | 75 ± 4 | 
4 | 16 x 20 bp stacked junction (structured_DNA) DNA 1: CGAATACTCAGCTCAACCGAAAGGTTGAGCCTTCGCTCGAAAGAGCGAAGTACTCTTCCG DNA 2: CGGAAGAGTATGAGTATTCG |  |  | Kd ([2]; label: 5'-FAM strand 2, four-way Holliday junction, stacked-X, two GAAA-capped arms): 90 ± 4 nM
5 | 20 bp duplex (dsDNA) DNA 1: CGGAAGAGTATGAGTATTCG DNA 2: CGAATACTCATACTCTTCCG |  | 338 ± 15 | Kd ([2]; label: 5'-FAM strand 1, blunt): 222 ± 11 nM
6 | 70 bp duplex (dsDNA) DNA 1: CCAAATGCTTCAATAATATTGAAAAAGGAAGAGTATGAGTATTCAACATTTCCGTGTCGCCCTTATTCCC DNA 2: GGGAATAAGGGCGACACGGAAATGTTGAATACTCATACTCTTCCTTTTTCAATATTATTGAAGCATTTGG | 103 ± 3 | 193 ± 4 | 
